Measured values published in publication PMC3433420.
“And” between values parts separate entries of the source, which are not always exact repeats. Equal entries are not always repeated. Where two headings read alike, the source gives them in different places. Each block holds one substance with its values, some of them ahead of it.

Legend:
PLCG2-NC (Homo sapiens) = PLCG2-NC (Homo sapiens) (UniProt P16885); conditions: cited from earlier work
YES1 (Homo sapiens) [1] = target: YES1 (Homo sapiens) (UniProt P07947); conditions: cited from earlier work
SRC (Homo sapiens) [2] = target: SRC (Homo sapiens) (UniProt P12931); conditions: cited from earlier work
TNS4 (Homo sapiens) = TNS4 (Homo sapiens) (UniProt Q8IZW8); conditions: cited from earlier work
HSH2D (Homo sapiens) = HSH2D (Homo sapiens) (UniProt Q96JZ2); conditions: cited from earlier work
SHC1-PTB (Homo sapiens) [3] = target: SHC1-PTB (Homo sapiens) (UniProt P29353); conditions: cited from earlier work
SLA2 (Homo sapiens) = SLA2 (Homo sapiens) (UniProt Q9H6Q3); conditions: cited from earlier work
VAV2 (Homo sapiens) = VAV2 (Homo sapiens) (UniProt P52735); conditions: cited from earlier work
PLCG1-NC (Homo sapiens) = PLCG1-NC (Homo sapiens) (UniProt P19174); conditions: cited from earlier work
RASA1-N (Homo sapiens) [4] = target: RASA1-N (Homo sapiens) (UniProt P20936); conditions: cited from earlier work
SYK-NC (Homo sapiens) [5] = target: SYK-NC (Homo sapiens) (UniProt P43405); conditions: cited from earlier work
PIK3R2-NC (Homo sapiens) = PIK3R2-NC (Homo sapiens) (UniProt O00459); conditions: cited from earlier work
SH2B3 (Homo sapiens) = SH2B3 (Homo sapiens) (UniProt Q9UQQ2); conditions: cited from earlier work
ABL2 (Homo sapiens) [6] = target: ABL2 (Homo sapiens) (UniProt P42684); conditions: cited from earlier work
PIK3R3-NC (Homo sapiens) = PIK3R3-NC (Homo sapiens) (UniProt Q92569); conditions: cited from earlier work
[7] = target: SYK tandem SH2 domains (human); test: peptide or protein array; SH2/PTB proteins spotted on aldehyde slides, rhodamine peptide titrated in buffer B (20 mM HEPES, 100 mM KCl, 0.1% Tween-20, 5 mM DTT, pH 7.8), 1 h at room temperature; replicate assays
BLK SH2 domain (human) = BLK SH2 domain (human) (UniProt P51451); test: as above
YES1 SH2 domain (human) = YES1 SH2 domain (human) (UniProt P07947); test: as above
[8] = target: SH3BP2 SH2 domain (human) (UniProt P78314); test: as above
ABL2 (Homo sapiens) [9] = target: ABL2 (Homo sapiens) (UniProt P42684); conditions: cited from earlier work; remark: listed apart in the source
CRKL (Homo sapiens) [10] = target: CRKL (Homo sapiens) (UniProt P46109); conditions: cited from earlier work
[11] = target: PIK3R3 C-terminal SH2 domain (human); test: SPR; Biacore 3000; 6X His SH2 proteins held on a Ni-NTA chip, dye-free peptides in solution, equilibrium
[12] = target: PIK3R1 N-terminal SH2 domain (human); test: as above
SHC1-PTB (Homo sapiens) [13] = target: SHC1-PTB (Homo sapiens) (UniProt P29353); conditions: cited from earlier work; remark: listed apart in the source
ABL2 (Homo sapiens) [14] = target: ABL2 (Homo sapiens) (UniProt P42684); conditions: cited from earlier work; remark: listed apart in the source
[15] = target: PLCG1 C-terminal SH2 domain (human); test: SPR; Biacore 3000; 6X His SH2 proteins held on a Ni-NTA chip, dye-free peptides in solution, equilibrium
ABL2 (Homo sapiens) [16] = target: ABL2 (Homo sapiens) (UniProt P42684); conditions: cited from earlier work; remark: listed apart in the source
NCK2 (Homo sapiens) = NCK2 (Homo sapiens) (UniProt O43639); conditions: cited from earlier work
GRB2 (Homo sapiens) = GRB2 (Homo sapiens) (UniProt P62993); conditions: cited from earlier work
ABL1 (Homo sapiens) = ABL1 (Homo sapiens) (UniProt P00519); conditions: cited from earlier work
SHC1-PTB (Homo sapiens) [17] = target: SHC1-PTB (Homo sapiens) (UniProt P29353); conditions: cited from earlier work; remark: listed apart in the source
[18] = target: MET pY1313 phosphopeptide, rhodamine-labelled; test: fluorescence polarisation; saturation binding in solution: rhodamine peptide fixed at 10 nM, protein titrated 0.002-10 uM, 20 min at room temperature; assay buffer 20 mM HEPES, 100 mM KCl, 0.1% Tween-20, 5 mM DTT, pH 7.8; apparent KD
[19] = target: ErbB1 pY801 phosphopeptide, rhodamine-labelled (human); test: as above
[20] = target: ErbB2 pY685 phosphopeptide, rhodamine-labelled (human); test: as above
SYK-N (Homo sapiens) [21] = target: SYK-N (Homo sapiens) (UniProt P43405); conditions: cited from earlier work
[22] = target: ErbB1 Y900 non-phosphorylated peptide, rhodamine-labelled (human); test: fluorescence polarisation; saturation binding in solution: rhodamine peptide fixed at 10 nM, protein titrated 0.002-10 uM, 20 min at room temperature; assay buffer 20 mM HEPES, 100 mM KCl, 0.1% Tween-20, 5 mM DTT, pH 7.8; apparent KD
SRC (Homo sapiens) [23] = target: SRC (Homo sapiens) (UniProt P12931); conditions: cited from earlier work; remark: listed apart in the source
TNS1 (Homo sapiens) = TNS1 (Homo sapiens) (UniProt Q9HBL0); conditions: cited from earlier work
ABL2 (Homo sapiens) [24] = target: ABL2 (Homo sapiens) (UniProt P42684); conditions: cited from earlier work; remark: listed apart in the source
CRKL (Homo sapiens) [25] = target: CRKL (Homo sapiens) (UniProt P46109); conditions: cited from earlier work; remark: listed apart in the source
BMX (Homo sapiens) = BMX (Homo sapiens) (UniProt P51813); conditions: cited from earlier work
CRK (Homo sapiens) [26] = target: CRK (Homo sapiens) (UniProt P46108); conditions: cited from earlier work
RASA1-N (Homo sapiens) [27] = target: RASA1-N (Homo sapiens) (UniProt P20936); conditions: cited from earlier work; remark: listed apart in the source
SHB (Homo sapiens) = SHB (Homo sapiens) (UniProt Q15464); conditions: cited from earlier work
ABL2 (Homo sapiens) [28] = target: ABL2 (Homo sapiens) (UniProt P42684); conditions: cited from earlier work; remark: listed apart in the source
SYK-NC (Homo sapiens) [29] = target: SYK-NC (Homo sapiens) (UniProt P43405); conditions: cited from earlier work; remark: listed apart in the source
YES1 (Homo sapiens) [30] = target: YES1 (Homo sapiens) (UniProt P07947); conditions: cited from earlier work; remark: listed apart in the source
SYK-NC (Homo sapiens) [31] = target: SYK-NC (Homo sapiens) (UniProt P43405); conditions: cited from earlier work; remark: listed apart in the source
RASA1-N (Homo sapiens) [32] = target: RASA1-N (Homo sapiens) (UniProt P20936); conditions: cited from earlier work; remark: listed apart in the source
CRKL (Homo sapiens) [33] = target: CRKL (Homo sapiens) (UniProt P46109); conditions: cited from earlier work; remark: listed apart in the source
CRK (Homo sapiens) [34] = target: CRK (Homo sapiens) (UniProt P46108); conditions: cited from earlier work; remark: listed apart in the source
ABL2 (Homo sapiens) [35] = target: ABL2 (Homo sapiens) (UniProt P42684); conditions: cited from earlier work; remark: listed apart in the source
SYK-N (Homo sapiens) [36] = target: SYK-N (Homo sapiens) (UniProt P43405); conditions: cited from earlier work; remark: listed apart in the source

Chain of CRKL (Homo sapiens) (P46109 9-107): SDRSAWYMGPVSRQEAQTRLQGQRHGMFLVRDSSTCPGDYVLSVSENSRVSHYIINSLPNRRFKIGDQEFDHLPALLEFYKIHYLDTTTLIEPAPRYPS
Chain of RASA1-N (Homo sapiens) (P20936 176-446): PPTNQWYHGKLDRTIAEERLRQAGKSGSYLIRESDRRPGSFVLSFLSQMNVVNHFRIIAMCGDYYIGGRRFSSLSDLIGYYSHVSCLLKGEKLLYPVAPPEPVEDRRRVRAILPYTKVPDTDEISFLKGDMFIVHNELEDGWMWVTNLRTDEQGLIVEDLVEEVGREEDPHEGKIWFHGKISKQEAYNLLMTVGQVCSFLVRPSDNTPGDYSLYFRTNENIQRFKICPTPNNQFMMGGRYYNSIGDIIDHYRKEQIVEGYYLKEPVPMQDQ
Chain of SHC1-PTB (Homo sapiens) (P29353 483-583): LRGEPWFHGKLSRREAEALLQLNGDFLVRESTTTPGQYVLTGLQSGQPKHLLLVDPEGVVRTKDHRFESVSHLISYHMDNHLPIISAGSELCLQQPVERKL
Chain of ABL2 (Homo sapiens) (P42684 168-268): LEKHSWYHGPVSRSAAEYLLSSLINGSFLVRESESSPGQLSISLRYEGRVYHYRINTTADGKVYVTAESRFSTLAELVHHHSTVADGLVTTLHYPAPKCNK
Chain of CRK (Homo sapiens) (P46108 8-123): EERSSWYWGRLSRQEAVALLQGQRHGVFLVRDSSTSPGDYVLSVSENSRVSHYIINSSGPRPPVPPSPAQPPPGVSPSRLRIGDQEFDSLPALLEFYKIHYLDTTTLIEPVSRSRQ
Chain of YES1 SH2 domain (human) (P07947 158-255): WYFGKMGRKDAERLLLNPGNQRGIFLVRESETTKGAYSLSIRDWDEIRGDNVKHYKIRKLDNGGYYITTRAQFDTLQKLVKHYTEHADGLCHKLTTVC
Chain of SH3BP2 SH2 domain (human) (P78314 457-555): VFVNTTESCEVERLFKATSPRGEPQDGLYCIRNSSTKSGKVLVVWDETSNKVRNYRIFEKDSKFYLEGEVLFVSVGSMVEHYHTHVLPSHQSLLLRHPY
Chain of YES1 (Homo sapiens) (P07947 153-260): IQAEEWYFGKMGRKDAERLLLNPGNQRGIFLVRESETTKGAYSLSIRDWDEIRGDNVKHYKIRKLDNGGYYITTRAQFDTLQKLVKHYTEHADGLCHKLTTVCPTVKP
Chain of BLK SH2 domain (human) (P51451 124-220): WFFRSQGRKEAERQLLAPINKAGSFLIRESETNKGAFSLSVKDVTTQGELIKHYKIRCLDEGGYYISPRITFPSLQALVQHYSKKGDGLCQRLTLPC
Chain of ABL1 (Homo sapiens) (P00519 122-222): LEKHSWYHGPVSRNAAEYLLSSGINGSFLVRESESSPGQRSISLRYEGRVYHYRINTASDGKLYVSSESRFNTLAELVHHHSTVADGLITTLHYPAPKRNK
Chain of NCK2 (Homo sapiens) (O43639 280-380): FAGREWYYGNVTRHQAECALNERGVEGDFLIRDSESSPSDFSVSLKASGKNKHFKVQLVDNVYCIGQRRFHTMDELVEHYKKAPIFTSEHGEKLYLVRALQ
Chain of PIK3R2-NC (Homo sapiens) (O00459 325-721): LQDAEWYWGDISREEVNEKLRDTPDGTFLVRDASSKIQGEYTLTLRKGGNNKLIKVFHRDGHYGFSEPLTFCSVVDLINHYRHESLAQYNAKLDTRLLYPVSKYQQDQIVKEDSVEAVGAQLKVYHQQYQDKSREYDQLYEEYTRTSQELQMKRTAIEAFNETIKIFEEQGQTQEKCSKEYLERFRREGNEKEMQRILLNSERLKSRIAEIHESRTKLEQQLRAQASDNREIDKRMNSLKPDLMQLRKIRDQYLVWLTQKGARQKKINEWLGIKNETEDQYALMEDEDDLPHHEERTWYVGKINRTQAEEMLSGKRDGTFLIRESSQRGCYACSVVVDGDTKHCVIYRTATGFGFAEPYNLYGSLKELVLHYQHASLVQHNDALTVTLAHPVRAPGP
Chain of SH2B3 (Homo sapiens) (Q9UQQ2 359-467): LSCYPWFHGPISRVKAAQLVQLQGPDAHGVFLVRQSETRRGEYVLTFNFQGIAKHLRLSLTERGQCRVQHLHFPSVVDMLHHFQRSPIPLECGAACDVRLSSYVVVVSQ
Chain of PLCG1-NC (Homo sapiens) (P19174 545-761): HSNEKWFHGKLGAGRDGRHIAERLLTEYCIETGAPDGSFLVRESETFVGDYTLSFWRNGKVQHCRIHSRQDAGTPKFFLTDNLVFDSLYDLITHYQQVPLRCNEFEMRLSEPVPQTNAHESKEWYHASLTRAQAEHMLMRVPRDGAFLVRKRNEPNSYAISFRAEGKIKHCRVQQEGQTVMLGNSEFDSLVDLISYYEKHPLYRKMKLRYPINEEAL
Chain of SLA2 (Homo sapiens) (Q9H6Q3 89-196): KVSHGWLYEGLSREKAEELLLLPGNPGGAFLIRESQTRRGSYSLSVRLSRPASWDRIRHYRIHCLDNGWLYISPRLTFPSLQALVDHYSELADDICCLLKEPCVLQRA
Chain of GRB2 (Homo sapiens) (P62993 55-157): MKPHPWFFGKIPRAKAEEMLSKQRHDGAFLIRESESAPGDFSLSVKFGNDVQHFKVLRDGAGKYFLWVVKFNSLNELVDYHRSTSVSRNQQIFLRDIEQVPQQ
Chain of PLCG2-NC (Homo sapiens) (P16885 527-740): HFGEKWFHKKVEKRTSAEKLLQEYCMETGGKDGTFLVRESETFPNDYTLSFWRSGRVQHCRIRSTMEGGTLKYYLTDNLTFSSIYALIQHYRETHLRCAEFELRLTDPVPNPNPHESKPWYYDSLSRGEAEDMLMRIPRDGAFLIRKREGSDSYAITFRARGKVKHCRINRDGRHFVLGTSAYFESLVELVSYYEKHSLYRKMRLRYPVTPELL
Chain of BMX (Homo sapiens) (P51813 291-397): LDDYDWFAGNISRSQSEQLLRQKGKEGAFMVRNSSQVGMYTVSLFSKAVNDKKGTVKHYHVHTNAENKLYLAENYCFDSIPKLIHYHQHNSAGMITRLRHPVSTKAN
Chain of HSH2D (Homo sapiens) (Q96JZ2 29-130): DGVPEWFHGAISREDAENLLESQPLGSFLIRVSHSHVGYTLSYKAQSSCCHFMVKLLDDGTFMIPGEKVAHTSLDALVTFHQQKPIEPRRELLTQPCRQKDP
Chain of SHB (Homo sapiens) (Q15464 405-509): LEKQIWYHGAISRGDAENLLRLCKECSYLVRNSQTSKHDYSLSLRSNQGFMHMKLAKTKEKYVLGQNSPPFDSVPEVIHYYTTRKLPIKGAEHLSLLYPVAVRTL
Chain of TNS4 (Homo sapiens) (Q8IZW8 444-561): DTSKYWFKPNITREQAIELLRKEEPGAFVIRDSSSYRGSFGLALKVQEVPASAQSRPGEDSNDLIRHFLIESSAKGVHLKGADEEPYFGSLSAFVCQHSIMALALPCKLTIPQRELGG
Chain of VAV2 (Homo sapiens) (P52735 668-772): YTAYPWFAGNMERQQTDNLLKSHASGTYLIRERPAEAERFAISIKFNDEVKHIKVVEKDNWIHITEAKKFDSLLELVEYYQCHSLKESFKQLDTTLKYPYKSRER
Chain of TNS1 (Homo sapiens) (Q9HBL0 1562-1681): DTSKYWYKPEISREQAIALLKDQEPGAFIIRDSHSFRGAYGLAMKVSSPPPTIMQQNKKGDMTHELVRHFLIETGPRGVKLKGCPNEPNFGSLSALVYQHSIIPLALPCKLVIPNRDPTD

Substance: …pYNADGGKMd
apparent Kd (screen) (PLCG2-NC (Homo sapiens)): 1140 nM

Substance: …pYKGLWIPEd
apparent Kd (screen) (YES1 (Homo sapiens) [1]): 540 nM
apparent Kd (screen) (SRC (Homo sapiens) [2]): 579 nM

Substance: …pYTHQSDVWd
apparent Kd (screen) (TNS4 (Homo sapiens)): 299 nM
apparent Kd (screen) (HSH2D (Homo sapiens)): 1130 nM

Substance: …pYLSEFSLK
apparent Kd (screen) (SHC1-PTB (Homo sapiens) [3]): 24 nM
apparent Kd (screen) (SLA2 (Homo sapiens)): 2000 nM
apparent Kd (screen) (VAV2 (Homo sapiens)): 2000 nM
apparent Kd (screen) (PLCG1-NC (Homo sapiens)): 2000 nM
apparent Kd (screen) (RASA1-N (Homo sapiens) [4]): 709 nM
apparent Kd (screen) (SYK-NC (Homo sapiens) [5]): 1670 nM
apparent Kd (screen) (PIK3R2-NC (Homo sapiens)): 2000 nM
apparent Kd (screen) (SH2B3 (Homo sapiens)): 2000 nM
apparent Kd (screen) (ABL2 (Homo sapiens) [6]): 221 nM
apparent Kd (screen) (PIK3R3-NC (Homo sapiens)): 2000 nM

Kd [7]: 801 nM and 1170 nM
Kd (BLK SH2 domain (human)): 1180 nM and 1600 nM
Kd (YES1 SH2 domain (human)): 1370 nM and 4860 nM
Kd [8]: 1180 nM and 1610 nM
Substance: ErbB4 pY1301 phosphopeptide (18-mer), rhodamine-labelled, for protein microarrays

Substance: …pYRAPTSTId
apparent Kd (screen) (ABL2 (Homo sapiens) [9]): 1230 nM
apparent Kd (screen) (CRKL (Homo sapiens) [10]): 1240 nM

Kd [11]: 1520 nM
Kd [12]: 13400 nM
Substance: ErbB2 pY685 phosphopeptide, dye-free

Substance: …pYLGLDVPV
apparent Kd (screen) (SHC1-PTB (Homo sapiens) [13]): 277 nM
apparent Kd (screen) (ABL2 (Homo sapiens) [14]): 210 nM

Kd [15]: 3460 nM
Substance: ErbB4 pY833 phosphopeptide, dye-free

Substance: …pYHNQPLNPd
apparent Kd (screen) (ABL2 (Homo sapiens) [16]): 62 nM
apparent Kd (screen) (NCK2 (Homo sapiens)): 2000 nM
apparent Kd (screen) (GRB2 (Homo sapiens)): 2000 nM
apparent Kd (screen) (ABL1 (Homo sapiens)): 523 nM
apparent Kd (screen) (SHC1-PTB (Homo sapiens) [17]): 321 nM

Kd [11]: 1470 nM
Kd [15]: 10900 nM
Substance: ErbB1 pY900 phosphopeptide, dye-free

Kd [18]: 256 nM
Kd [19]: 6960 nM
Kd [20]: 2510 nM
Substance: PIK3R1 N-terminal SH2 domain (domain or fragment)

Substance: …pYVREHKDNd
apparent Kd (screen) (SYK-N (Homo sapiens) [21]): 559 nM

Kd [22]: 5420 nM
Substance: SHC2 PTB domain (from UniProt P98077 1-582) (domain or fragment)

Kd [15]: 430 nM
Substance: ErbB1 pY978 phosphopeptide, dye-free

Kd [22]: 6930 nM
Substance: PIK3R2 tandem SH2 domains (from UniProt O00459 1-728) (domain or fragment)

Substance: …pYSADPTVFd
apparent Kd (screen) (SRC (Homo sapiens) [23]): 504 nM

Substance: …pYQDPHSTAd
apparent Kd (screen) (TNS1 (Homo sapiens)): 1280 nM
apparent Kd (screen) (ABL2 (Homo sapiens) [24]): 133 nM
apparent Kd (screen) (CRKL (Homo sapiens) [25]): 2000 nM
apparent Kd (screen) (BMX (Homo sapiens)): 1070 nM
apparent Kd (screen) (CRK (Homo sapiens) [26]): 1230 nM
apparent Kd (screen) (RASA1-N (Homo sapiens) [27]): 1320 nM
apparent Kd (screen) (SHB (Homo sapiens)): 991 nM
apparent Kd (screen) (ABL2 (Homo sapiens) [28]): 74 nM
apparent Kd (screen) (SYK-NC (Homo sapiens) [29]): 981 nM
apparent Kd (screen) (YES1 (Homo sapiens) [30]): 378 nM

Substance: …pYMTPMRDKd
apparent Kd (screen) (SYK-NC (Homo sapiens) [31]): 330 nM
apparent Kd (screen) (RASA1-N (Homo sapiens) [32]): 27 nM
apparent Kd (screen) (CRKL (Homo sapiens) [33]): 65 nM
apparent Kd (screen) (CRK (Homo sapiens) [34]): 29 nM
apparent Kd (screen) (ABL2 (Homo sapiens) [35]): 18 nM

Substance: …pYVNEPLYLd
apparent Kd (screen) (SYK-N (Homo sapiens) [36]): 6 nM
